“And” between values parts separate entries of the source, which are not always exact repeats. Equal values may be shown once.
How the values were obtained:
[1] = biological target: T1, human CD3ε/δ (ACRO systems, CDD-H52W1) (human, UniProt P07766 23-126; P04234 22-105); assay: BLI, antibody captured, antigen in solution;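 further: bispecific antibodies captured on AHIC biosensors to a 1.5 nm loading signal, in PBST with 0.02% detergent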
T1 construct: Bought protein; also called human CD3ϵ/CD3δ; human CD3 epsilon/delta antigen
Description: The bispecific antibodies were diluted to 5 ag/ml, and 1.5 nm protein was coupled to the surface of the AHIC sensor chip through 0.02% PBST.

[2] = biological target: T2, human CD3 on Jurkat cells (human, UniProt P07766 23-207; P04234 22-171; P09693 23-182); assay: FACS, Jurkat cells;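 further: flow cytometric binding of bispecific antibodies to Jurkat T cells, threefold serial dilutions incubated half an hour in the cold, EC50 taken from the fitted binding curve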
T2 construct: whole, on cells; CD3 complex as on Jurkat (Clone E6-1) cells; also called CD3 expressing cells (Jurkat)

B1: 302 (TA3), configuration of FIG. 1W (bispecific antibody, IgG4)
heavy: EVQLVESGGGLVQPGGSLRLSCAASGYSFTGYTMNWVRQAPGKGLEWVALINPYKGVSTYNQKFKDRFTISVDKSKNTAYLQMNSLRAEDTAVYYCARSGYYGDSDWYFDVWGQGTLVTVSSASTKGPSVFPLAPCSRSTSESTAALGCLVKDYFPEPVTVSWNSGALTSGVHTFPAVLQSSGLYSLSSVVTVPSSSLGTKTYTCNVDHKPSNTKVDKRVESKYGPPCPPCPAPEAAGGPSVFLFPPKPKDTLMISRTPEVTCVVVDVSQEDPEVQFNWYVDGVEVHNAKTKPREEQFNSTYRVVSVLTVLHQDWLNGKEYKCKVSNKGLPSSIEKTISKAKGQPREPQVYTLPPCQEEMTKNQVSLWCLVKGFYPSDIAVEWESNGQPENNYKTTPPVLDSDGSFFLYSRLTVDKSRWQEGNVFSCSVMHEALHNHYTQKSLSLSL
chain: EVQLVESGGGFVQAGESLTLSCTSSTLTFTPYRMAWYRQAPGKQRDLVADISSGDGRTTNYADFAKGRFTISRDNIKNTVFLRMTNLKPEDTAVYYCNTFVSFVGIARSWGQGTQVTVSSESKYGPPCPPCPAPEAAGGPSVFLFPPKPKDTLMISRTPEVTCVVVDVSQEDPEVQFNWYVDGVEVHNAKTKPREEQFNSTYRVVSVLTVLHQDWLNGKEYKCKVSNKGLPSSIEKTISKAKGQPREPQVCTLPPSQEEMTKNQVSLSCAVKGFYPSDIAVEWESNGQPENNYKTTPPVLDSDGSFFLVSRLTVDKSRWQEGNVFSCSVMHEALHNRFTQKSLSLSL
light: DIQMTQSPSSLSASVGDRVTITCRASQDIRNYLNWYQQKPGKAPKLLIYYTSRLESGVPSRFSGSGSGTDYTLTISSLQPEDFATYYCQQGNTLPWTFGQGTKVEIK
notes: chains put together from VH/VL, CH1, knob-Fc; IgG4, kappa; also called CEA-CD3 bispecific antibody 302; not shown: kappa light chain constant domain (CL)
- Kd [1]: 3.63 nM
- koff [1]: 0.000879 s⁻¹
- kon [1]: 246000 M⁻¹ s⁻¹
- EC50 [2]: 1.4 µg/mL and 10.8 nM

B2: CEA-Knob+Fab-Hole (104) (bispecific antibody, human IgG4 S228P, kappa, F234A L235A)
chain: EVQLVESGGGFVQAGESLTLSCTSSTLTFTPYRMAWYRQAPGKQRDLVADISSGDGRTTNYADFAKGRFTISRDNIKNTVFLRMTNLKPEDTAVYYCNTFVSFVGIARSWGQGTQVTVSSESKYGPPCPPCPAPEAAGGPSVFLFPPKPKDTLMISRTPEVTCVVVDVSQEDPEVQFNWYVDGVEVHNAKTKPREEQFNSTYRVVSVLTVLHQDWLNGKEYKCKVSNKGLPSSIEKTISKAKGQPREPQVYTLPPCQEEMTKNQVSLWCLVKGFYPSDIAVEWESNGQPENNYKTTPPVLDSDGSFFLYSRLTVDKSRWQEGNVFSCSVMHEALHNHYTQKSLSLSL
heavy: EVKLLESGGGLVQPKGSLKLSCAASGFTFNTYAMNWVRQAPGKGLEWVARIRSKYNNYATYYADSVKDRFTISRDDSQSILYLQMNNLKTEDTAMYYCVRHGNFGNSYVSWFAYWGQGTLVTVSSASTKGPSVFPLAPCSRSTSESTAALGCLVKDYFPEPVTVSWNSGALTSGVHTFPAVLQSSGLYSLSSVVTVPSSSLGTKTYTCNVDHKPSNTKVDKRVESKYGPPCPPCPAPEAAGGPSVFLFPPKPKDTLMISRTPEVTCVVVDVSQEDPEVQFNWYVDGVEVHNAKTKPREEQFNSTYRVVSVLTVLHQDWLNGKEYKCKVSNKGLPSSIEKTISKAKGQPREPQVCTLPPSQEEMTKNQVSLSCAVKGFYPSDIAVEWESNGQPENNYKTTPPVLDSDGSFFLVSRLTVDKSRWQEGNVFSCSVMHEALHNRFTQKSLSLSL
light: QAVVTQESALTTSPGETVTLTCRSSTGAVTTSNYANWVQEKPDHLFTGLIGGTNKRAPGVPARFSGSLIGDKAALTITGAQTEDEAIYFCALWYSNLWVFGGGTKVEIKRTVAAPSVFIFPPSDEQLKSGTASVVCLLNNFYPREAKVQWKVDNALQSGNSQESVTEQDSKDSTYSLSSTLTLSKADYEKHKVYACEVTHQGLSSPVTKSFNRGEC
notes: Anti-CD3 TA1 Fab + anti-CEA VHH C17 on human IgG4 knob-into-hole Fc
- Kd [1]: 0.839 nM
- koff [1]: 0.0003 s⁻¹
- kon [1]: 357000 M⁻¹ s⁻¹
- EC50 [2]: 3.35 µg/mL and 25.8 nM

B3: Fab-Knob+Hole-CEA (103) (bispecific antibody, human IgG4 S228P, kappa, F234A L235A)
heavy: EVKLLESGGGLVQPKGSLKLSCAASGFTFNTYAMNWVRQAPGKGLEWVARIRSKYNNYATYYADSVKDRFTISRDDSQSILYLQMNNLKTEDTAMYYCVRHGNFGNSYVSWFAYWGQGTLVTVSSASTKGPSVFPLAPCSRSTSESTAALGCLVKDYFPEPVTVSWNSGALTSGVHTFPAVLQSSGLYSLSSVVTVPSSSLGTKTYTCNVDHKPSNTKVDKRVESKYGPPCPPCPAPEAAGGPSVFLFPPKPKDTLMISRTPEVTCVVVDVSQEDPEVQFNWYVDGVEVHNAKTKPREEQFNSTYRVVSVLTVLHQDWLNGKEYKCKVSNKGLPSSIEKTISKAKGQPREPQVYTLPPCQEEMTKNQVSLWCLVKGFYPSDIAVEWESNGQPENNYKTTPPVLDSDGSFFLYSRLTVDKSRWQEGNVFSCSVMHEALHNHYTQKSLSLSL
chain: ESKYGPPCPPCPAPEAAGGPSVFLFPPKPKDTLMISRTPEVTCVVVDVSQEDPEVQFNWYVDGVEVHNAKTKPREEQFNSTYRVVSVLTVLHQDWLNGKEYKCKVSNKGLPSSIEKTISKAKGQPREPQVCTLPPSQEEMTKNQVSLSCAVKGFYPSDIAVEWESNGQPENNYKTTPPVLDSDGSFFLVSRLTVDKSRWQEGNVFSCSVMHEALHNRFTQKSLSLSLGGGGSGGGGSEVQLVESGGGFVQAGESLTLSCTSSTLTFTPYRMAWYRQAPGKQRDLVADISSGDGRTTNYADFAKGRFTISRDNIKNTVFLRMTNLKPEDTAVYYCNTFVSFVGIARSWGQGTQVTVSS
light: QAVVTQESALTTSPGETVTLTCRSSTGAVTTSNYANWVQEKPDHLFTGLIGGTNKRAPGVPARFSGSLIGDKAALTITGAQTEDEAIYFCALWYSNLWVFGGGTKVEIKRTVAAPSVFIFPPSDEQLKSGTASVVCLLNNFYPREAKVQWKVDNALQSGNSQESVTEQDSKDSTYSLSSTLTLSKADYEKHKVYACEVTHQGLSSPVTKSFNRGEC
notes: as for B2
- Kd [1]: 0.662 nM
- koff [1]: 0.000233 s⁻¹
- kon [1]: 352000 M⁻¹ s⁻¹
- EC50 [2]: 0.848 µg/mL and 6.52 nM

B4: CEA-Fab-Knob-+Hole (203) (bispecific antibody, human IgG4 S228P, kappa, F234A L235A)
heavy: EVKLLESGGGLVQPKGSLKLSCAASGFTFNTYAMNWVRQAPGKGLEWVARIRSKYNNYATYYADSVKDRFTISRDDSQSILYLQMNNLKTEDTAMYYCVRHGNFGNSYVSWFAYWGQGTLVTVSSASTKGPSVFPLAPCSRSTSESTAALGCLVKDYFPEPVTVSWNSGALTSGVHTFPAVLQSSGLYSLSSVVTVPSSSLGTKTYTCNVDHKPSNTKVDKRVESKYGPPCPPCPAPEAAGGPSVFLFPPKPKDTLMISRTPEVTCVVVDVSQEDPEVQFNWYVDGVEVHNAKTKPREEQFNSTYRVVSVLTVLHQDWLNGKEYKCKVSNKGLPSSIEKTISKAKGQPREPQVYTLPPCQEEMTKNQVSLWCLVKGFYPSDIAVEWESNGQPENNYKTTPPVLDSDGSFFLYSRLTVDKSRWQEGNVFSCSVMHEALHNHYTQKSLSLSL
chain: ESKYGPPCPPCPAPEAAGGPSVFLFPPKPKDTLMISRTPEVTCVVVDVSQEDPEVQFNWYVDGVEVHNAKTKPREEQFNSTYRVVSVLTVLHQDWLNGKEYKCKVSNKGLPSSIEKTISKAKGQPREPQVCTLPPSQEEMTKNQVSLSCAVKGFYPSDIAVEWESNGQPENNYKTTPPVLDSDGSFFLVSRLTVDKSRWQEGNVFSCSVMHEALHNRFTQKSLSLSL
light: EVQLVESGGGFVQAGESLTLSCTSSTLTFTPYRMAWYRQAPGKQRDLVADISSGDGRTTNYADFAKGRFTISRDNIKNTVFLRMTNLKPEDTAVYYCNTFVSFVGIARSWGQGTQVTVSSGGGGSGGGGSQAVVTQESALTTSPGETVTLTCRSSTGAVTTSNYANWVQEKPDHLFTGLIGGTNKRAPGVPARFSGSLIGDKAALTITGAQTEDEAIYFCALWYSNLWVFGGGTKVEIKRTVAAPSVFIFPPSDEQLKSGTASVVCLLNNFYPREAKVQWKVDNALQSGNSQESVTEQDSKDSTYSLSSTLTLSKADYEKHKVYACEVTHQGLSSPVTKSFNRGEC
notes: VHH linked to the VL of the Fab; human IgG4 knob-into-hole Fc
- Kd [1]: 2.51 nM
- koff [1]: 0.000621 s⁻¹
- kon [1]: 248000 M⁻¹ s⁻¹
- EC50 [2]: 0.29 µg/mL and 2.23 nM

B5: Knob+CEA-Fab-Hole (204) (bispecific antibody, human IgG4 S228P, kappa, F234A L235A)
chain: ESKYGPPCPPCPAPEAAGGPSVFLFPPKPKDTLMISRTPEVTCVVVDVSQEDPEVQFNWYVDGVEVHNAKTKPREEQFNSTYRVVSVLTVLHQDWLNGKEYKCKVSNKGLPSSIEKTISKAKGQPREPQVYTLPPCQEEMTKNQVSLWCLVKGFYPSDIAVEWESNGQPENNYKTTPPVLDSDGSFFLYSRLTVDKSRWQEGNVFSCSVMHEALHNHYTQKSLSLSL
heavy: EVKLLESGGGLVQPKGSLKLSCAASGFTFNTYAMNWVRQAPGKGLEWVARIRSKYNNYATYYADSVKDRFTISRDDSQSILYLQMNNLKTEDTAMYYCVRHGNFGNSYVSWFAYWGQGTLVTVSSASTKGPSVFPLAPCSRSTSESTAALGCLVKDYFPEPVTVSWNSGALTSGVHTFPAVLQSSGLYSLSSVVTVPSSSLGTKTYTCNVDHKPSNTKVDKRVESKYGPPCPPCPAPEAAGGPSVFLFPPKPKDTLMISRTPEVTCVVVDVSQEDPEVQFNWYVDGVEVHNAKTKPREEQFNSTYRVVSVLTVLHQDWLNGKEYKCKVSNKGLPSSIEKTISKAKGQPREPQVCTLPPSQEEMTKNQVSLSCAVKGFYPSDIAVEWESNGQPENNYKTTPPVLDSDGSFFLVSRLTVDKSRWQEGNVFSCSVMHEALHNRFTQKSLSLSL
light: EVQLVESGGGFVQAGESLTLSCTSSTLTFTPYRMAWYRQAPGKQRDLVADISSGDGRTTNYADFAKGRFTISRDNIKNTVFLRMTNLKPEDTAVYYCNTFVSFVGIARSWGQGTQVTVSSGGGGSGGGGSQAVVTQESALTTSPGETVTLTCRSSTGAVTTSNYANWVQEKPDHLFTGLIGGTNKRAPGVPARFSGSLIGDKAALTITGAQTEDEAIYFCALWYSNLWVFGGGTKVEIKRTVAAPSVFIFPPSDEQLKSGTASVVCLLNNFYPREAKVQWKVDNALQSGNSQESVTEQDSKDSTYSLSSTLTLSKADYEKHKVYACEVTHQGLSSPVTKSFNRGEC
notes: as for B4
- Kd [1]: 2.91 nM
- koff [1]: 0.000571 s⁻¹
- kon [1]: 197000 M⁻¹ s⁻¹
- EC50 [2]: 1.36 µg/mL and 10.4 nM

Reference: patent US20240400715A1 (VIBRANT PHARMA, published 2024)
